Test results taken from publication PMC9721465, “PFK2/FBPase-2 is a potential target for metabolic engineering in the filamentous fungus Myceliophthora thermophila” (Frontiers in Microbiology, 2022).

Experiments:
[1] = substrate: Nc1ncnc2c1ncn2[C@@H]1O[C@H](COP(=O)(O)OP(=O)(O)OP(=O)(O)O)[C@@H](O)[C@H]1O; experiment: PFK2 assay, fru-2,6-P2 quantified by activation of potato PPi-PFK, spectrophotometric; assay type: biochemical, Thermothelomyces thermophilus; details: co-substrate F6P
Description: PFK2 assay, fru-2,6-P2 quantified by activation of potato PPi-PFK, spectrophotometric on PFK2-C

[2] = substrate: O=P(O)(O)OC[C@H]1O[C@@](CO)(OP(=O)(O)O)[C@@H](O)[C@@H]1O; experiment: FBPase-2 assay, product/substrate by LC-MS/MS; assay type: biochemical, Thermothelomyces thermophilus; details: pH 7, 30 °C, 1 mM ATP, 2 mM MgCl2, 5 mM KPi
Description: FBPase-2 assay, product/substrate by LC-MS/MS on PFK2-A

B1: PFK2-C (Thermothelomyces thermophilus ATCC 42464) (protein)
chain: MPEPLQPSFFHVAASGSDPRPSESACQREDAAVAPQSSSLTLRKLAMSHRMGATASDPSSPTIQAIGDSHHGAETHPLHSVLPSPALTNALKESLRTAGAGQSGPPIGVPNGLHFDSPYSRSISSTAPGSPRIPPVRQNSGSHTPRIRPHATTLNIPGMTRSRASPDGRIPDRDVAAKLVIIMVGLPARGKSYITKKIQRYLSWQQHNTKIFNVGNRRRIAAGMVNPTDASPTNAANGHDVPSQAATILSKGTKGPDIVVEEPTALDLNKGKPVPKMDQSAAFFDPKNEAAAKLREQVALDTLDELLTYLLHQGGAVGILDATNSTIQRRKLLVERIKAREPKLGILFIESVCHDQNLLEANMRLKLFGPDYKDQDPHMALEDFKKRVAAYESAYEPLGKWEEDNDLQYIQMIDVGRKIIQHRLRGFLSGGIVSYLTTFNLSPRQIWITRHGQSEDNRAHRLGGDSELTERGHYYGQALYNFITYKRKEWLIQQKNKIASSNFPPQPGDNTPPYPELFQELDDKNFCVWTSMLKRSIETAEYFEADDDYDVKAWEMLNEMNAGAFEGMTYEEIAEKYPEEFEKRARDKLQYIYPGLGGEGYLQIISRLRDMVREIERITDHVLIIGHRSVCRVLMAYFMDLTRDDIADLDMPLGMLYAIEPKPYGIEFHAYKYNEETFWFDELPNYKPRKTVDRNS
notes: pET28a expression in E. coli (BL21/Rosetta DE3), His-Trap purified; cDNA-encoded
- Km [1]: 940 ± 150 µM

B2: PFK2-A (Thermothelomyces thermophilus ATCC 42464) (protein)
chain: MAPKINGTGVMPEDTRICVVMVGLPARGKSYIAQRAQRYLKWLSIPAKTFNVGNYRRKDAPHPSADFFDTNNAEGERQRRAAANAAVTDMIQWFKTGGVVGILDATNSTKERRKWVLERLSKEGIEVLFVESKCDDEELIMANIRDVKTTSPDYQGQDPEQAALDFRERIRHYEKVYKSINDDNDEDHLTYLKIMNVGKKVFINRIQDYLQSRVVYFLMNLHIRPRSVWLSRHGESEYNLEGRIGGDSLLSHRGEEYARKLPELVRQSVGSDRPLTVWTSTLKRTIATARHLPKHYNQLQWKALDELDAGVCDGLTYQEIADQYPEDFQARDEDKYNYRYRGGESYRDVVIRLEPIIMELERSENILIISHQAVIRCIYAYFMQKPQEESPWVPVPLHTLIKLTPRAYDTLVEKYDAKIKAVSTWRGKGSTAKHEDPTPEGGI
notes: pET32a expression in E. coli Rosetta (DE3), His-Trap purified; cDNA-encoded
- Km [2]: 3810 ± 220 µM
